According to publication PMC12203613:

Substrate: O=C(O)C(=O)Cc1ccc(O)cc1
Experiment: purified protein
Conditions: Fe(II)

B1: AtHPPD (4-hydroxyphenylpyruvate dioxygenase) (Arabidopsis thaliana) (protein)
chain: MGHQNAAVSENQNHDDGAASSPGFKLVGFSKFVRKNPKSDKFKVKRFHHIEFWCGDATNVARRFSWGLGMRFSAKSDLSTGNMVHASYLLTSGDLRFLFTAPYSPSLSAGEIKPTTTASIPSFDHGSCRSFFSSHGLGVRAVAIEVEDAESAFSISVANGAIPSSPPIVLNEAVTIAEVKLYGDVVLRYVSYKAEDTEKSEFLPGFERVEDASSFPLDYGIRRLDHAVGNVPELGPALTYVAGFTGFHQFAEFTADDVGTAESGLNSAVLASNDEMVLLPINEPVHGTKRKSQIQTYLEHNEGAGLQHLALMSEDIFRTLREMRKRSSIGGFDFMPSPPPTYYQNLKKRVGDVLSDDQIKECEELGILVDRDDQGTLLQIFTKPLGDRPTIFIEIIQRVGCMMKDEEGKAYQSGGCGGFGKGNFSELFKSIEEYEKTLEAKQLVG
- Km: 44.04 µM

B2: OsHPPD (4-hydroxyphenylpyruvate dioxygenase) (Oryza sativa Japonica Group) (protein)
chain: PPTPTPTATTGAVSAAAAAGENAGFRLVGHRRFVRANPRSDRFQALAFHHVELWCADAASAAGRFAFALGAPLAARSDLSTGNSAHASLLLRSASVAFLFTAPYGGDHGVGADAATTASIPSFSPGAARRFAADHGLAVHAVALRVADAADAFRASVAAGARPAFQPADLGGGFGLAEVELYGDVVLRFVSHPDGADAPFLPGFEGVSNPGAVDYGLRRFDHVVGNVPELAPVAAYISGFTGFHEFAEFTAEDVGTAESGLNSVVLANNAETVLLPLNEPVHGTKRRSQIQTYLDHHGGPGVQHIALASDDVLGTLREMRARSAMGGFEFLAPPPPNYYDGVRRRAGDVLSEEQINECQELGVLVDRDDQGVLLQIFTKPVGDRPTFFLEMIQRIGCMEKDESGQEYQKGGCGGFGKGNFSELFKSIEEYEKSLEAKQAPTVQGS
- Km: 40.02 µM
